Data: the supplement of paper PMC9170038

System: MS2 coat protein
Assay: apparent KD of MS2 coat protein; designed switch direction (-1 OFF switch, 1 ON switch): -1; higher = weaker reporter binding
How it was run: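 Stalled E. coli RNA polymerase transcribed designed RNA switches on Illumina chips, which were then titrated with SNAP-549-labelled MS2 coat protein, doubling from 0.7 or 1.5 nM to 3 µM. Steps lasted from 0.8–1.5 h at the lowest concentration to 10–20 min at the highest. The apparent KD is each design's median over clusters of curve-fitted normalised fluorescence.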

[1] = Eterna round: R95, input ligand: FMN 200 uM
[2] = Eterna round: R95, input ligand: microRNA oligo, concentration not stated
[3] = Eterna round: R95, input ligand: none
[4] = input ligand: microRNA oligo, concentration not stated

| Sequence | apparent KD of MS2 coat protein (input ligand: FMN 200 uM) | apparent KD of MS2 coat protein (input ligand: none) | apparent KD of MS2 coat protein [2] | further results |
| --- | --- | --- | --- | --- |
| AAUAGACAUGAGGAUCACCCAUGUCAGGAUAUUUCGAGUAAGGUGGGCCUAGAAUUGGGAAGAAGGGACCUGGA [Eternabot (L1) Solution 29] (Eterna round: R97, puzzle: Exclusion 1) | 0.0177 µM | 0.0213 µM | – | – |
| UACCGGCGGACCGAAGCUUUUUGCUCGUCUUAUACUACAACAUGAGGAUCACCCAUGUGGUGGUGGUCCGUUGUAGU [JL ViennaUCT Bitein mod 4] (puzzle: Sensor v3, turn-off variant 2) | – | – | 0.0157 µM | apparent KD of MS2 coat protein [1]: 0.0202 µM; apparent KD of MS2 coat protein [3]: 0.0135 µM |
| GCUAAGAGUGUGAGGAUAUGCUGGUCCUUGGAUCAGCAGAAGGCACAUGAGGAUCACCCAUGUGAAAACUUAGC [Mat - Exclusion 4 - JL Mod - D64] (puzzle: Brourd's mod of Exclusion 4) | – | – | 0.0199 µM | – |
| UUGUGCACGCUGCGGUCCUACAUGAGGAUCACCCAUGUGGUCUGGUGGCGUGGGUCACCGGACUUGGCUCGUCUUGC [salish99_S_TOV1_R5_059] (Eterna round: R97, puzzle: Sensor, turn-off variant 1) | 0.0225 µM | 0.0228 µM | – | – |
| CUCAUGUGAGGAUAUGUGAUCAACCUUCUGUAUAGAUGAUUACAGAAGGCACAUGAGGAUCACCCAUGUAGAUC [Ex4 - 3 - 22] (puzzle: Exclusion 4) | – | – | 0.0916 µM | – |
| GUCAGCUCGUGAGGAUAUAUAUUAACAUGAGGAUCACCCAUGUAAGAUCAGCUUCGGCAGUUAAUAUAGAAGGCACGAGCUGAC [ENG2/14-A1] (Eterna round: R96, puzzle: Exclusion NG 2) | – | – | – | apparent KD of MS2 coat protein [4]: 0.137 µM |
| AAGGGUGCUUUUAGAACGACAUGAGGAUCACCCAUGUAGACUGAGGAUAUCUACUCCUAAGGACCGGAGAAGGCAGUGUAAUGC [Ex NG3 #64] (Eterna round: R96, puzzle: Exclusion NG 3) | 0.0578 µM | 0.0559 µM | – | apparent KD of MS2 coat protein [4]: 0.075 µM |
| AAGGUGUUAGGAUAUCGUAGUUUGAGGCAGACGGGAUUUUGCGAGAAGGAACAUGAGGAUCACCCAUGUAGGAU [JR_Exclu4_Sub040] (puzzle: Exclusion 4) | – | – | 0.0259 µM | – |
| UAUUUUGCAAGCAGAUCCCACAUGAGGAUCACCCAUGUGCUCGUCUUAUAAGGUUCUGUGACGAUAGUCACGGUACC [mod -Eli mod] (Eterna round: R97, puzzle: Sensor, turn-off variant 1) | 0.0459 µM | 0.0461 µM | – | – |
| GGUCUACAUGAGGAUCACCCAUGUAAGGAUAUCGUCACUGGAGCUGCGGCUCCAGUGACGAGAAGGUGCAUAAU [E1/11-A3] (Eterna round: R97, puzzle: Exclusion 1) | 0.0394 µM | 0.0308 µM | – | – |
| GGGAGGAGUGUAGGAUAUCCGACAAUCCUGUCAGGAGAAGGGCACCCUACUUGAGGAUCACCCAAGUCUCCGGGUGCUCAAGAA [Mutated MS2 EX1.15] (Eterna round: R96, puzzle: Exclusion NG 1) | 0.00933 µM | 0.0132 µM | – | apparent KD of MS2 coat protein [4]: 0.00822 µM |
| ACACUGCGAGGAUAUACAUGAGGAUCACCCAUGUUUCGGUAGACAAGGUUAAUUUAAGGUAGAAGGCGCGUAUU [JR_Ex3_Sub009] (Eterna round: R97, puzzle: Exclusion 3) | 0.173 µM | 0.0402 µM | – | – |
| UAUUAGUAAGGAUAUCUCGUCAUGGACGUGAGUCCAUGACGAGAGAAGGUACAUGAGGAUCACCCAUGUCCAUU [Mod of Fisker 20 - Jieux - Exclusion 4] (Eterna round: R97, puzzle: Exclusion 4) | 0.0165 µM | 0.0141 µM | – | – |
| UAGCAAGCAAUAAGAUCCCACAUGAGGAUCACCCAUGUGCUCGUCUUAUAAAAGGUUUCGACGAAAACGUCGAGACC [Eli 91 v28] (Eterna round: R97, puzzle: Sensor, turn-off variant 1) | 0.0198 µM | 0.016 µM | – | – |
| AUUUUGUCAGGAUAUGACUAGUAGCACGAAAGUGCUACUACUUAGAAGGGACAUGAGGAUCACCCAUGUAUUCC [Bring Us a Shrubbery-10] (puzzle: Exclusion 4) | – | – | 0.0151 µM | – |
| CUCUUGUUAGGAUAUCAAACCGGCGGCGGAGCCGCCGGUAGUGAGAAGGGACAUGAGGAUCACCCAUGUAAGAA [Isarcedi] (puzzle: Exclusion 4) | – | – | 0.0652 µM | – |
| AAUUAACAUCAGGAUAUGACUAGCGAUAGCUAGUCAGAAGGGAUGACAUGAGGAUCACCCAUGUGAUCAAUUAA [E6/2-A4] (Eterna round: R97, puzzle: Exclusion 6) | 0.492 µM | 0.131 µM | – | – |
| AUAAUGUCAGGAUAUACUAAUGAUGAAUGAUCAGACAUUAUGUAGAAGGGACAUGAGGAUCACCCAUGUAAUAU [EX4 #3] (Eterna round: R97, puzzle: Exclusion 4) | 0.0355 µM | 0.0291 µM | – | – |

| Sequence | apparent KD of MS2 coat protein (input ligand: FMN 200 uM) | apparent KD of MS2 coat protein (input ligand: none) | apparent KD of MS2 coat protein [2] | further results |
| --- | --- | --- | --- | --- |
| UGUUGUUACGCAGGAUAUGGCCAACAGGCCCUAGGAUAUCCGAAAGGAGAAGGAGCGCCAACAGGCGAGAAGGGCGGGUUAACA [pwkr exNG2 2xF7 2xFMN.14] (Eterna round: R96, puzzle: Exclusion NG 2) | 0.201 µM | 0.14 µM | – | apparent KD of MS2 coat protein [4]: 0.0557 µM |
| AAUAACAGAGGAUAUACUAUUUUAUGUGUUUGUUAUUUUAAACAUGAGGAUCACCCAUGUAGAAGGCUGAGUAA [JMF 29] (puzzle: Exclusion 2) | – | – | 0.0219 µM | – |
| GUUAUGUCAGGAUAUGCUAAUGAUGAAUGAUCAGACAUGAUGUAGAAGGGACAUGAGGAUCACCCAUGUAAUAU [EX4 #7] (Eterna round: R97, puzzle: Exclusion 4) | 0.0323 µM | 0.025 µM | – | – |
| UUAGAAUUGUUAGGAUAUUAAUUAUUGUUUAGUAUGAUCUACAUGAGGAUCACCCAUGUUAAAUAUAAGAAGGAACGUUAGAUU [JR_ExcNG2_Sub095] (Eterna round: R96, puzzle: Exclusion NG 2) | 0.0437 µM | 0.0513 µM | – | apparent KD of MS2 coat protein [4]: 0.0356 µM |
| GCUAGGCAUGUCAGGAUAUGCUGUACCUUGGUACAGCAGAAGGGACAUGAGGAUCACCCAUGUGCCUACCUAGC [JL-BMX4-4.04] (Eterna round: R97, puzzle: Brourd's mod of Exclusion 4) | 0.173 µM | 0.0283 µM | – | – |
| GAUCAACAUGAGGAUCACCCAUGUGAGGAUAUUGACUUGCUCACUUUCCCAUCAGAGUCGAGAAGGCGCAUCUG [1986#21] (Eterna round: R97, puzzle: Exclusion 1) | 0.0281 µM | 0.0408 µM | – | – |
| UUUCAUCAUGUAGGAUAUGCGUGGCGAAGCUAUGCAGAAGGACAUGAGGAUCACCCAUGUUCUAGCGUCUGCGUACAGAUGCUA [JL ENG1 1.35] (Eterna round: R96, puzzle: Exclusion NG 1) | 0.226 µM | 0.0524 µM | – | apparent KD of MS2 coat protein [4]: 0.0451 µM |
| UUGGGCAGAGGAUAUCGUACGUAGCACAUGAGGAUCACCCAUGUGGCCAGCCGCUAAACAUGAGAAGGUUGUGUAC [Eternabot (Original) Solution 8] (Eterna round: R97, puzzle: Exclusion 5) | 0.0176 µM | 0.0143 µM | – | – |
| GGCGACCUAGGAUAUACAUGAGGAUCACCCAUGUUUAUCUAUUAGAUGAAGACGGGUUGUAGAAGGAGGAUAUU [JL Geriin mod] (puzzle: Exclusion 3) | – | – | 0.0146 µM | – |
| GGUCAGACGGUAGGAUAUCCAUAUCGAGUGACCCUUUCAUAACAUGAGGAUCACCCAUGUCGGUGGGAGAAGGGCUGUACGGCG [salish99_ExNG02_R04_002] (Eterna round: R96, puzzle: Exclusion NG 2) | 0.0458 µM | 0.0356 µM | – | apparent KD of MS2 coat protein [4]: 0.0226 µM |
| CAUUAUUAUCGAGGAUAUCCUAUUGAAAUUCUGGGAGAAGGCGGACUCAACAUGAGGAUCACCCAUGUAAGACGGGUGCUAGGG [Ex NG1 #25] (Eterna round: R96, puzzle: Exclusion NG 1) | 0.202 µM | 0.157 µM | – | apparent KD of MS2 coat protein [4]: 0.0931 µM |
| AGUACUAACACGAAAGUGUUAGUACAAUAAGCUUGUGAAACAUGAGGAUCACCCAUGUCCUCAUAGGCUCGUCUUAU [salish99_TOv2_r3_054] (puzzle: Sensor v3, turn-off variant 2) | – | – | 0.607 µM | apparent KD of MS2 coat protein [1]: 0.0263 µM; apparent KD of MS2 coat protein [3]: 0.0183 µM |
| CUUUUGUGAGGAUAUCAGUAGUAAAAAAAUAAAAUUACUACUGAGAAGGCACAUGAGGAUCACCCAUGUUCCUU [salish99_ex4_r3_010] (puzzle: Exclusion 4) | – | – | 0.0152 µM | apparent KD of MS2 coat protein [1]: 0.0284 µM; apparent KD of MS2 coat protein [3]: 0.014 µM |
| GGGUGUCCAGUGAGGAUAUCCAGCGCUCAGGCGCAGGAGAAGGCACAUGAGGAUCACCCAUGUAGCUGAAGAAA [Geenra] (puzzle: Brourd's mod of Exclusion 4) | – | – | 0.0309 µM | apparent KD of MS2 coat protein [1]: 0.116 µM; apparent KD of MS2 coat protein [3]: 0.0417 µM |
| CAGCGAACAGGAUAUACAUGAGGAUCACCCAUGUGUUCCAGCUAGGAAACUAGCAAAUGUAGAAGGGUUCGCUG [Mat - Exclusion 3 - JL Mod - D2] (Eterna round: R97, puzzle: Exclusion 3) | 0.584 µM | 0.324 µM | – | – |
| GAGUUAACAUGAGGAAUAUACAUGAGGAUCACCCAUGUUAACAAAAUUUUUGCUCGUCUUAUAACAACAAUUAACUC [Alarm 3 - Jieux - Sensor, turn-off variant 1] (Eterna round: R97, puzzle: Sensor, turn-off variant 1) | 0.272 µM | 0.151 µM | – | – |
| AAAGAAACAGGAUAUGUAGGCUGCGACAUGAGGAUCACCCAUGUGUCGGUAUACAGUCCUAUAGAAGGGUUAUGAC [Tieder] (puzzle: Exclusion 5) | – | – | 0.0131 µM | – |
